Source: patent publication US11421026B2, “Antibodies that bind human cannabinoid 1 (CB1) receptor” (BIRD ROCK BIO, Inc., priority 2015, dated 2022)

B1: PA13R3-P1C4: phage-derived chimeric anti-CB1 IgG; HC variable SEQ ID NO: 2, LC variable SEQ ID NO: 6 (antibody, V domains shown)
VH: EVQLQQSGAELVRPGVSVKISCKASGYEFSYYWMNWVKQRPGQGLEWIGQIYPGDGETKYNGKFKGKATLTADKSSNTAYMQLSSLTSEDSAVYFCARSHGNYLPYWGQGTLVTVSA
VL: DIVLTQSPAIMSASLGERVTMTCTASSSVSSSYLHWYQQKPGSSPKLWIYSTSNLASGVPARFSGSGSGTSYSLTISSMEAEDAATYYCHQYHRSPPTFGAGTKLELK
modifications: PA13R3-P1C4 Heavy chain variable region; PA13R3-P1C4 Light chain variable region
B2: PA13R3-P1C4 Fab: Fab fragment of chimeric PA13R3-P1C4 (antibody, V domains shown)
VH: EVQLQQSGAELVRPGVSVKISCKASGYEFSYYWMNWVKQRPGQGLEWIGQIYPGDGETKYNGKFKGKATLTADKSSNTAYMQLSSLTSEDSAVYFCARSHGNYLPYWGQGTLVTVSA
VL: DIVLTQSPAIMSASLGERVTMTCTASSSVSSSYLHWYQQKPGSSPKLWIYSTSNLASGVPARFSGSGSGTSYSLTISSMEAEDAATYYCHQYHRSPPTFGAGTKLELK
B3: 36E12B6C2: hybridoma-derived anti-CB1 mAb; HC variable SEQ ID NO: 18, LC variable SEQ ID NO: 22 (antibody, listed as Mus sp., V domains shown)
VH: QVQLQQSGAELVRPGSSVKISCKASGYEFSYYWMNWVKQRPGQGLQWIGQIYPGDGDTNYNGKFKGKATLTADKSSSTAYMHLTSLTSEDSAVYFCARSGGNPFAFWGQGTLVTVSA
VL: DIQMTQTSSSLSASLGDRVTFSCRASQDISNYLNWYQQKPDGTVKLLIYYTSRLHSGVTSRFRGSGSGTDYSLTISNLEQEDVATYFCQQGHTLPWSFGGGTKLEIK

Experiments:
[1] = molecular target: A139 iCAPS (human CB1, ICL3 replaced with BRIL); assay: ELISA binding of IgG/Fab to CB1 iCAPS A139; settings: IgG and Fab ELISA, Table 8
Experimental: (§1) Purified IgG was tested for binding to purified CB1 receptor (CB1 Conformation Antigen Presenting System (iCAPS)) by ELISA. Non-biotinylated antigens (e.g. empty iCAPS) were coated directly on Maxisorp plates. The primary antibodies were purified IgGs with 1:3 serial dilutions, incubated on the plate for 1 hour. After 3 rounds of washing with PBST, secondary antibodies HRP goat anti-mouse IgG (Abmart) or HRP goat anti-human IgG (Sigma), depending on the species of the IgGs were added and incubated for another hour. The plates were washed three times with PBST, then developed with TMB (Biopanda). HCl was added to the plates to stop the reaction. Absorbance at 450 nm was read on Emax precision microplate reader (Molecular Devices).
(§2) IgG and Fab molecules tested were 36E12B6C2 IgG, 36E12B6C2 Fab, PA13R3-P1C4 IgG, and PA13R3-P1C4 Fab, compared to negative control BRIL binder P1F7 IgG and P1F7 Fab. For IgG antibodies, the secondary antibody used to detect binding was anti-mouse IgG-HRP; for Fabs, the secondary antibody used to detect binding was anti-human IgG-HRP.

[2] = molecular target: A138 iCAPS (human CB1, ICL3 replaced with protein 1 sequence); assay: ELISA binding of IgG/Fab to CB1 iCAPS A138; settings: IgG and Fab ELISA, Table 8
Experimental: as §1, §2

[3] = molecular target: T1, Native human CB1 TRex CHO A156 (Homo sapiens, UniProt P21554); assay: Flow cytometry (FACS) binding to native human CB1 cells
T1 construct: pcDNA4/TO native full length human CB1 receptor construct was transfected into tetracycline inducible system Trex-CHO cells; expressed in transfected cells
Experimental: (§3) TRex CHO parental cells, TRex CHO A56 over-expressed CB1 (CB1 T210A/fusion partner), and Native human CB1 TRex CHO A156 were harvested from flasks. 100 μl of 1×10^6 cells/ml of cells were incubated with primary antibody IgGs. Secondary Antibody PE conjugated anti-human and anti-mouse was diluted in 1:200 folds. Anti-Human Fab FITC was diluted in 1:32 folds. Cells were washed with 200 μl of FACS buffer twice and transferred to BD 5 ml Falcon tube and analyzed by flow cytometry. Binding of purified IgG was initially tested at concentrations of 30 nM and 300 nM.
(§4) To further assess TRex CHO parental cells, TRex CHO A56 overexpressed CB1, Native human CB1 TRex CHO A156, 5HT2B, Mouse CB1 and human CB2 were used to examine the specificity of IgG binding. 100 μl of 1×10^6 cells/ml of cells were incubated with primary antibody IgGs in 3-fold serial dilutions starting from 1 μM to 0.5 nM for 30 minutes on ice. After being washed with 200 μl of FACS buffer twice, cells were incubated with secondary antibody for 30 minutes on ice. Cells were washed with 200 μl of FACS buffer twice and transferred to BD Falcon 5 ml tube and analyzed by FACS.
(§5) For selected binders, full binding curves were generated on CB1 receptor by testing a range of concentrations. Three-fold serial dilutions from 1 μM to […] were prepared. Selectivity was determined by measuring binding to cells expressing 5HT2B or CB2, relative to binding to A156 (native human CB1 receptor expressing) or A56 (overexpressed—CB1 receptor with the T210A modification and ICL3 replacement with fusion partner) by flow cytometry. […]
(§6) The binding affinity, cross-reactivity and specificity of humanized P1C4 antibodies were determined by flow cytometry with TRex CHO parental cells, TRex CHO A56 overexpressed CB1 cells (T210A/fusion partner), native human CB1 TRex CHO A156 cells, Trex parental (no CB1) cells, mouse CB1 cells, and human CB2 stable cells. […] Cells were washed with 200 μl of FACS buffer twice and transferred to BD Falcon 5 ml tube and analyzed by flow cytometry (BD FACScalibur).

[4] = system: TRex CHO A56 over-expressed CB1 (CB1 T210A/fusion partner); assay: Flow cytometry (FACS) binding to over-expressed CB1 cells; set-up: species or system human
Experimental: as §3, §4, §5, §6

[5] = molecular target: T2, human CB2 (TRex CHO cells) (Homo sapiens, UniProt P34972); assay: Flow cytometry selectivity versus human CB2; type: binding
T2 construct: expressed in transfected cells
Experimental: as §4
Santa Cruz anti-CB1 rabbit polyclonal antibody and secondary antibody FITC conjugated anti-rabbit were used to detect the expression of mouse CB1. R&D mouse monoclonal anti-CB2 and human IgG P2C2 were used to confirm the expression of CB2 and 5HT2B respectively. Both anti-mouse and anti-human secondary antibodies were PE-conjugated.
For selected binders, full binding curves were generated on CB1 receptor by testing a range of concentrations. Three-fold serial dilutions from 1 μM to […] were prepared. Selectivity was determined by measuring binding to cells expressing 5HT2B or CB2, relative to binding to A156 (native human CB1 receptor expressing) or A56 (overexpressed—CB1 receptor with the T210A modification and ICL3 replacement with fusion partner) by flow cytometry. As shown in FIG. 2C and FIG. 2D, the expression of CB2 and 5HT2B was confirmed using mouse monoclonal anti-CB2 and P2C2 human IgG to confirm CB2 and 5HT2B expression, respectively. PE-conjugated anti-mouse (for detection of anti-CB2) and PE conjugated anti-human antibodies were used to detect CB2 and 5HT2B, respectively.
The binding affinity, cross-reactivity and specificity of humanized P1C4 antibodies were determined by flow cytometry with TRex CHO parental cells, TRex CHO A56 overexpressed CB1 cells (T210A/fusion partner), native human CB1 TRex CHO A156 cells, Trex parental (no CB1) cells, mouse CB1 cells, and human CB2 stable cells. […] After being washed with 200 μl of FACS buffer twice, cells were incubated with PE conjugated anti-human secondary antibody (Southern Biotech) for 30 minutes on ice. Cells were washed with 200 μl of FACS buffer twice and transferred to BD Falcon 5 ml tube and analyzed by flow cytometry (BD FACScalibur).
Binding selectivity and cross-reactivity of PA13R3-P1C4 and its humanized variants was also characterized by flow cytometry using TRex CHO cells stably transfected with the GPCRs of interest. Specifically, binding selectivity for CB1 over CB2 was determined. Cross reactivity to mouse CB1 was also determined. […] Cells were washed with 200 μL FACS buffer twice and analyzed by flow cytometry (Guava). Binding of purified IgG full concentration curves ranging from 1 μM to 1.3 nM was determined. […]

| Molecule | EC50 [1] | EC50 [2] | binding to A156 (in words) [3] | binding to A56 (in words) [4] | cross-activity with human CB2 [5] | Kd TRexCHO Human CB2 ([5]; Table 10) |
| --- | --- | --- | --- | --- | --- | --- |
| B1 | 0.17 nM | 0.17 nM | bind to both A56 and A156 | bind to both A56 and A156 | do not have cross-activity | No binding |
| B2 | 0.27 nM | 0.23 nM | bind to both A56 and A156 | bind to both A56 and A156 | do not have cross-activity | – |
| B3 | 0.19 nM | 0.201 nM | bind to both A56 and A156 | bind to both A56 and A156 | do not have cross-activity | – |
